The source of these data is US10428308B2, “Mesoderm and definitive endoderm cell populations” (Icahn School of Medicine at Mount Sinai, priority 2005, dated 2019).

Type in all cases: cell-based, mouse
Assay [1] has as its system GFP^+ hCD4^med cells from CD4-HNF/GFP-T ES cells. Description: Reaggregation of sorted GFP^+ hCD4^med cells in serum free media with DKK1 and/or activin. As for the experimental part:
FIGS. 35A and 35B depict, the effects of DKK1 and activin on EB differentiation. EBs differentiated and sorted as in FIG. 32 for GFP^+ hCD4^med were allowed to reaggregate in serum replacement containing media alone or with the addition of human DKK1 100 ng/ml, activin 100 ng/ml, or both factors together. […] FIG. 35B depicts endodermal gene expression by RT PCR. The sorted populations were treated as indicated above for 2 days, then plated on matrigel in serum free media without factors added. Gene expression was analyzed an additional 5 days after plating.
Nodal, a key molecule involved in mesoderm/endoderm induction in vivo, signals through the same receptors as activin. It is also known that Nodal as well as inhibitors for Wnt signaling are expressed preferentially in or around the anterior primitive streak. Considering that the endoderm forms from the anterior primitive streak, it is possible that nodal/activin signaling in combination with inhibition of Wnt signals induces endoderm formation. To test this hypothesis, CD4-HNF/GFP-T ES cells were differentiated for 3.25 days in serum and GFP^+ hCD4^med cells were sorted and reaggregated in serum free media with no factor, DKK1 (Wnt inhibitor), activin, or activin and DKK1. The effect of these culture conditions on hCD4-HNF3β and GFP-Bry levels were analyzed by flow cytometry (FIG. 35A). With serum free media alone, hCD4 expression was lost after 1 day reaggregation. […] To further test this idea, sorted cells reaggregated for two days in the culture conditions above were washed with serum free media without factors and plated onto martrigel in serum free media. After 5 days, the cultures were harvested and gene expression determined by RT PCR. […] These culture conditions have the potential to allow the large scale production of endodermal derived tissues such as the pancreas and liver.

The next assay has as its system GFP-Bry ES cells / EBs. Description: Activin induction of brachyury (GFP) in serum-free EB cultures, FACS. The procedure: A) FACS profile showing GFP expression in day 6 EBs differentiated in the presence of 100 ng/ml of activin. B) Kinetics of GFP induction in cultures containing 100 ng/ml of activin. Open circles are EB differentiated in the presence of activin, closed squares are EBs differentiated in absence of activin. C) RT-PCR expression analysis of indicated genes in day 6 EBs grown in the presence (+activin) or absence (−activin) of activin. Numbers indicate day of EB differentiation.
FIGS. 23A and 23B show the effects of different concentrations of activin on the developmental potential of EBs. A) GFP expression in day 7 EBs induced with different concentrations of activin. B) RT-PCR expression analysis of day 7 EBs induced with different concentrations of activin.
To further enrich for cells with endodermal potential, the effects of growth factors known to induce this cell population in other model systems were tested. Studies in Xenopus have shown that activin will induce both mesoderm and endoderm from ectoderm in culture. Of particular interest was the observation that activin behaved as a morphogen in this model in that it induced different cell types at different concentrations used. […] ES cells were differentiated for 2 days in Stem Pro 34 medium without serum. At this stage, the developing EBs were harvested and recultured in IMDM supplemented with serum replacement (serum free) and activin at a concentration of 100 ng/ml. EBs were harvested at different days and assayed for GFP^+ expression and expression of genes indicative of ectoderm, mesoderm and endoderm development. […] While the kinetics of GFP induction was delayed compared to EBs differentiated in serum, this concentration of activin did induce substantial numbers of brachyury positive cells (60%) by day 6 of differentiation. […] Induction of pdx-1 is of interest, as this gene is essential for pancreas development. Genes associated with hematopoietic development, such as GATA-1 and those indicative of neuroectoderm differentiation such as PAX6 were not induced by activin.
As little as 1 ng/ml of activin induced GFP^+ expression (10% of the total population) by 7 days of culture (FIG. 23A). The frequency of GFP^+ cells increased to 40% in cultures stimulated with 3 ng/ml and reached plateau levels of greater than 50% at 30 ng/ml. […] HNF3β, Sox17, Hex-1 were all induced in cultures stimulated with 10, 30, or 100 ng/ml of activin. Pdx-1 expression required the highest amount of activin and was induced best in EBs stimulated with 100 ng/ml. Neither GATA1 nor c-fms was expressed at any concentration of activin.

The subject of a further assay is CD4-HNF/GFP-T ES cells. The experiment in a line: Activin A / Wnt3a induction of ES derived primitive streak like cells in serum free culture, with pathway inhibitors. The following applies: serum free. As for the experimental part:
FIGS. 34A, 34B and 34C depict ES cells differentiated in serum free conditions with Activin A Wnt3a and/or inhibitors of these pathways. ES cells were cultured in serum free media for two days then trypsinized to obtain a single cell population. These cells were then reaggregated with the indicated conditions. At day six, the EBs were plated on matrigel coated dishes in serum free media.
Liu et. al. (1999) Nat. Genet. 22: 361-4. […] Activin stimulation leads to high levels of CD4 expression that persist after loss of GFP-Bry expression at day 6. […] Wnt does however stimulate expression of the posterior primitive streak markers HoxBI and Tbx6, while activin only induces Tbx6. […] At day 6, EBs that were stimulated with either activin or Wnt3a were plated on matrigel in serum free media to allow further development.
Considering that Wnt stimulation induces nodal and activin treatment induces Wnt3 (FIG. 34B), it is unknown whether activin/nodal signaling or Wnt Signaling alone can induce primitive streak formation or whether both factors are required together. CD4-HNF/GFP-T ES cells were induced with either activin or Wnt in conjunction with specific inhibitors of these pathways. DKK1 was used to inhibit Wnt signaling while the small molecule inhibitor SB-431542 (SB) was used to block Nodal/TGFβ signaling. DKK1 functions by binding the Wnt co-receptors, LRP5 and LRP6, which are essential for activation of the βcatenin signaling pathway. […] Inman et. al. (2002) MoI. Pharmacol. 62: 65-74. […] Therefore, to induce mesoderm and endoderm germ layers and their derivative tissues, both activin/Nodal and Wnt signals are required initially.

B1: activin: growth factor purchased from R&D systems; induces mesoderm and endoderm (protein, UniProt P08476 311-426, looked up)
Inhibin beta A chain: GLECDGKVNICCKKQFFVSFKDIGWNDWIIAPSGYHANYCEGECPSHIAGTSGSSLSFHSTVINHYRMRGHSPFANLKSCCVPTKLRPMSMLYYDDGQNIIKKDIQNMIVEECGCS
With B1, the “endoderm gene expression by RT PCR (pancreas, liver, intestine genes)” value in assay [1] (2 days treatment, then 5 days on matrigel without factors) is “Very low levels of just two of the genes, Pdxl and ALB”. Also, in assay [1] (after 1 day reaggregation, DKK1 100 ng/ml, activin 100 ng/ml), the “hCD4 (HNF3β) level by flow cytometry” value is “retention of HNF3β levels similar to newly sorted cells”. Moreover, the “GFP^+ expression (% of the total population)” value in the assay with GFP-Bry ES cells / EBs (activin 1 ng/ml, 7 days of culture) is on record as 10%. The “frequency of GFP^+ cells” value in the assay on GFP-Bry ES cells / EBs (activin 3 ng/ml, day 7) is reported as 40%. Besides, the “frequency of GFP^+ cells, plateau level” value with GFP-Bry ES cells / EBs (activin 30 ng/ml, day 7) is recorded as “greater than 50%”. Besides, the “brachyury positive cells (GFP)” value with GFP-Bry ES cells / EBs (activin 100 ng/ml, serum free, day 6 of differentiation) was found to be 60%. Moreover, the “endodermal gene expression (Alb, Aat, HNF4, Pdxl) by RT-PCR” value with CD4-HNF/GFP-T ES cells (day 6 EBs plated on matrigel a further 6 days) is “allowed development of cells expressing the endodermal genes Alb, Aat, HNF4, and Pdxl”. For the same molecule, in the assay with CD4-HNF/GFP-T ES cells (Activin A 25 ng/ml or Wnt3a 100 ng/ml), the “induction of GFP^+ CD4^+ cells” value is “initially induce GFP^+ CD4^+ cells”.
